Measurements as given in patent US20250313626A1 (HARBOUR BIOMED SHANGHAI, published 2025).
Substitutions are numbered along the chain they refer to. Read-outs that look alike come from different tables or passages of the source.

T1: human CD200R1 isoform a on CHOK1 cells (CHOK1/hCD200R1a) (human, UniProt Q8TD46 25-348)
T1 construct: also called CHOK1/CD200R1a
T1 sequence: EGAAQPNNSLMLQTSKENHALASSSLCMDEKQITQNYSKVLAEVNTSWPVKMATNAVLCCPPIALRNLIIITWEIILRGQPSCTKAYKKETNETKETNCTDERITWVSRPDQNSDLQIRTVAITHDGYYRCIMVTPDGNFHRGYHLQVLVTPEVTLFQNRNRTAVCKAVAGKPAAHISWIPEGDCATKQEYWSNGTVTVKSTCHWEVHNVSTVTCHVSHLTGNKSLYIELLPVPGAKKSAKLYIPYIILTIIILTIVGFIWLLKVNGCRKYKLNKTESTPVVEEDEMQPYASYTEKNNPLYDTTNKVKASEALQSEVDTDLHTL

T2: Cynomolgus macaques CD200R1 isoform a on CHOK1 cells (CHOK1/cynoCD200R1a) (Cynomolgus macaques)
T2 chain: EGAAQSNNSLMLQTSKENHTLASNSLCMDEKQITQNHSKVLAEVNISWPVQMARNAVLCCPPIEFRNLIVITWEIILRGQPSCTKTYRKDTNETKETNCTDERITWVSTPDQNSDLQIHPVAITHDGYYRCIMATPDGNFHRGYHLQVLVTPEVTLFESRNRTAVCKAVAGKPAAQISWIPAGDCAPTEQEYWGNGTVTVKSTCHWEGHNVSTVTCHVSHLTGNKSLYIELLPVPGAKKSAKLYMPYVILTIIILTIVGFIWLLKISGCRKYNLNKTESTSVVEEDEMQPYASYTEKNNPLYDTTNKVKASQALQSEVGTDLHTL

T3: CD200R1a on PathHunter Jurkat CD200R1a signaling cells (Eurofins DiscoverX, 93-1136C19) (human, UniProt Q8TD46 25-348)
T3 sequence: T1 sequence

B1: PR005509 (antibody, human IgG1, kappa, L234A L235A, V domains shown)
VH: QVQLVESGGGVVQPGRSLRLSCAASGFTFSSYGFHWVRQAPGKGLEWLGLIWSDGSNKYYADSVKGRFTISRDNSKNTLYLQMNSLRAEDTAVYYCARDRIVGAGFDYWGQGTLVTVSS
VL: not shown
B2: PR007973 (antibody, human IgG1, kappa, V domains shown)
VH: B1 VH with L50I, G55A, A104E
VL: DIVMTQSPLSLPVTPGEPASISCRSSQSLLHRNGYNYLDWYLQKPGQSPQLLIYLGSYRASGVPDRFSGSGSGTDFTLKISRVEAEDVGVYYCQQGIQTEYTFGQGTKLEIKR
notes: PTM variant of PR006839 (human IgG1)
B3: PR006480 (antibody, human IgG1, kappa, L234A L235A)
heavy: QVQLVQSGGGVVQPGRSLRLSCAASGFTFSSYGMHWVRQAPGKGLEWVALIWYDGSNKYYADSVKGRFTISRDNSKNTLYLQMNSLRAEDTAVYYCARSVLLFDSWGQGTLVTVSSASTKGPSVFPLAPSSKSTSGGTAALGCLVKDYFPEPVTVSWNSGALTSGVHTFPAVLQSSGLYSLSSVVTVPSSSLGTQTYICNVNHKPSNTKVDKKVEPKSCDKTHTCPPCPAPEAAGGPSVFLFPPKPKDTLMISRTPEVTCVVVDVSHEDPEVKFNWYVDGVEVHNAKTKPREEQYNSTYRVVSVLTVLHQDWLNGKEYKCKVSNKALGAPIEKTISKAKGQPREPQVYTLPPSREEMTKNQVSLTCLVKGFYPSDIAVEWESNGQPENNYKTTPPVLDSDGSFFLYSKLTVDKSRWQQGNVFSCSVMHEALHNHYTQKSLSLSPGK
light: DIQMTQSPPSLSASVGDRVTITCRASQSISSYLNWFQQKAGKAPKLLISATSNLQSGVPSRFSGSGSGTDFTLTISSLQPEDLATYYCQQSYSSPYTFGQGTKVEIKRTVAAPSVFIFPPSDEQLKSGTASVVCLLNNFYPREAKVQWKVDNALQSGNSQESVTEQDSKDSTYSLSSTLTLSKADYEKHKVYACEVTHQGLSSPVTKSFNRGEC
notes: also called PR6480
B4: PR007221 (antibody, human IgG1, kappa)
heavy: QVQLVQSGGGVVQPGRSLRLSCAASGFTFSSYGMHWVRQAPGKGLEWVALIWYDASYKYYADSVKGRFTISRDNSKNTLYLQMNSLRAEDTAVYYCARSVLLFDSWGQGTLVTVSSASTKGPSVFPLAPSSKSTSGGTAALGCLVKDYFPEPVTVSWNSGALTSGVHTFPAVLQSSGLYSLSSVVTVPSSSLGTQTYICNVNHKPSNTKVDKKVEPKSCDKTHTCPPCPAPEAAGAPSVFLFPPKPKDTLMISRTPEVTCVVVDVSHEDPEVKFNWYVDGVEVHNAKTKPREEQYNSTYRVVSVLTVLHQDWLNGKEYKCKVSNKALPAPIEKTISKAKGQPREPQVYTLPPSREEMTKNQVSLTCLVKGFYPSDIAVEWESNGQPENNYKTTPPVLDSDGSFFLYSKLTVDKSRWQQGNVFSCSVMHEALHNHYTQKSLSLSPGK
light: B3 light with M4L, S91T, Y92L
notes: PTM variant of PR006895 (human IgG1)
B5: PR007223 (antibody, human IgG1, kappa)
heavy: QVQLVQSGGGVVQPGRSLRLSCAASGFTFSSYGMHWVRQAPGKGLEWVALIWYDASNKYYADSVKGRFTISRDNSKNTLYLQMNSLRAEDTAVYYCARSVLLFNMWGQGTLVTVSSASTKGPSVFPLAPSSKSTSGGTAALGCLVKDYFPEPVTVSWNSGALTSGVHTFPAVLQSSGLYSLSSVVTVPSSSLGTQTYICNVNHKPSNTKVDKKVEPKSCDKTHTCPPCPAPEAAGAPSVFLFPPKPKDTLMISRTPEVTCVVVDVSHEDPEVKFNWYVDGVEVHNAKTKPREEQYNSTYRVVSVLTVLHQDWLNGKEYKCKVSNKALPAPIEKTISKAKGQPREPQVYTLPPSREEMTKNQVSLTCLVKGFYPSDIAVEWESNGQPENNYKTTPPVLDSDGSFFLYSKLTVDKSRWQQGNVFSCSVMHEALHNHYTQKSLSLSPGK
light: B3 light with M4L, S91T
notes: as for B4
B6: PR002906 (antibody, V domains shown)
VH: QVQLQESGPGLVKPSETLSLTCTVSGYTITSGYDWSWIRQPPGKGLEWIGYINYGGSTNYKPSLGSRVTISVDTSKNQFSLKLSSVTAADTAVYYCARYNEYKSYIYDWYFDFWGQGTLVTVSS
VL: DIQMTQSPSSLSASVGDRVTITCKASKNIRSYLAWYQQKPGKAPKLLIYSGSTLHSGVPSRFSGSGSGTDFTLTISSLQPEDFATYYCQQHHEYPLTFGQGTKVEIKR
notes: also called recombinant IgG1 antibody of huDX182

Experiments:
[1] = molecular target: T1, human CD200R1 isoform a on CHOK1 cells …; test: flow cytometry, CHOK1/hCD200R1a cells; table beside the curves
Method: (§1) This example is intended to investigate the in vitro binding activity of human anti-CD200R1 monoclonal antibodies to human/Cynomolgus macaques CD200R1a expressed on the surface of cells. The anti-CD200R1 antibodies were produced as described in Example 3.4 and the binding experiments at the cell level were performed using CHOK1/hCD200R1a and CHOK1-cynoCD200R1a.
(§2) Briefly, CHOK1/hCD200R1a cells and CHOK1-cynoCD200R1a cells were digested, and collected, and then were resuspended in PBS containing 2% BSA, respectively. The cell density was adjusted to 1×10⁶ cells/mL. The cells were seeded in a 96-well V-bottom plate (Corning, #3894) at 100 μL/well, followed by the addition of test antibodies and reference antibodies in a series diluted concentration, each at 100 μL/well. The cells were incubated away from light at 4° C. for 1 h. Thereafter, the cells in each well were rinsed twice with 100 μL of pre-cooled PBS containing 2% BSA, and centrifuged at 500 g at 4° C. for 5 min, and then the supernatant was discarded. […] Finally, the cells in each well were resuspended in 200 μL of pre-cooled PBS containing 2% BSA, and the fluorescence signal values were read using a BD CantoII flow cytometer.

[2] = molecular target: T2, Cynomolgus macaques CD200R1 isoform a …; test: flow cytometry, CHOK1/cynoCD200R1a cells; table beside the curves
Method: as §1, §2

[3] = molecular target: T3, CD200R1a on PathHunter Jurkat CD200R1a …; test: cell-based or functional assay
[4] = molecular target: T1, human CD200R1 isoform a on CHOK1 cells …; test: flow cytometry blocking assay: antibody titrated against human CD200 binding to CHOK1/hCD200R1a cells
[5] = molecular target: T1, human CD200R1 isoform a on CHOK1 cells …; test: flow cytometry blocking assay: antibody titrated against biotin-labelled human CD200 binding to CHOK1/hCD200R1a cells; head prints EC50 without unit, x axis Log [Ab] (nM), y axis Inhibition %
Method: In brief, CHOK1/hCD200R1a cells were digested and resuspended in 2% BSA in PBS. […] The cells were placed at 4° C. and incubated for 1 hour in the dark. […] 100 μL/well of pre-cooled PBS containing 2% BSA was added to rinse the cells twice, centrifugation was performed at 500 g, 4° C. for 5 minutes, and the supernatant was discarded. Fluorescent secondary antibody (PE Streptavidin, BD, Cat #: 554061, 1:200) was added at 100 μL/well, and incubation was performed at 4° C. for 30 minutes in the dark. The cells were washed twice with 200 μL/well of pre-cooled PBS, and were centrifuged at 500 g, 4° C. for 5 minutes, and the supernatant was discarded. Finally, 200 μL/well of pre-cooled PBS was used to resuspend the cells, and the fluorescence signal values were read using ACEA Novocyte 3000 flow cytometer. IC50 values were calculated.

[6] = molecular target: T3, CD200R1a on PathHunter Jurkat CD200R1a …; test: cell-based or functional assay; remark: listed apart in the source
[7] = molecular target: T3, CD200R1a on PathHunter Jurkat CD200R1a …; test: cell-based or functional assay; remark: listed apart in the source

MFI(Max) [2]	Binder	MFI(Max) [1]	IC50 (read off the curve) [4]	EC50 [5]	IC50 of the inhibition of CD200-induced PathHunter Jurkat CD200R1a luminescence (CHOK1/hCD200 cells as CD200 source) [6]	other results
19900	B1	101000				
	B2		~10 nM	0.36 nM		IC50 of the inhibition of CD200-induced PathHunter Jurkat CD200R1a luminescence (CHOK1/hCD200 cells as CD200 source) [3]: 0.706 nM
	B3				0.654 nM	
	B4					IC50 of the inhibition of CD200-induced PathHunter Jurkat CD200R1a luminescence (CHOK1/hCD200 cells as CD200 source) [7]: 1.27 nM
	B5		~10 nM		0.578 nM	
6440	B6	131000		0.463 nM		
